Test [1] has as its target T1, soluble IL-6R in cynomolgous plasma (cynomolgus monkey, UniProt A0A2K5WN54). The test is described as follows: ELISA 2, periplasmic extract; competitor IL-6; cyno plasma. For orientation: In an ELISA, binding on a coated surface is turned into a signal by an enzyme label.
For test [2], the target named is T2, native soluble IL-6R in human plasma (human), P08887.
T2 chain: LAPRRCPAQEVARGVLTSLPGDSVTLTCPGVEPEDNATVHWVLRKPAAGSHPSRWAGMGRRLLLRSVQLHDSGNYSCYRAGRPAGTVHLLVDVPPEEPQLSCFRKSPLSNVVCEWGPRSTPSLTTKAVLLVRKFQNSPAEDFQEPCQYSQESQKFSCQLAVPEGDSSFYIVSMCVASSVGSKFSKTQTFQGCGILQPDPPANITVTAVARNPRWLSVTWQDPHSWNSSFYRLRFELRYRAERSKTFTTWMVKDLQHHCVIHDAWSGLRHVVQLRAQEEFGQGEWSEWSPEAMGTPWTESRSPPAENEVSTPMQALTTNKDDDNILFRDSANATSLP
In words: ELISA 1, periplasmic extract; competitor IL-6; human plasma. The conditions noted are these: remark: other sources report otherwise.

Test [3] concerns the target T2, native soluble IL-6R in human plasma …. In words: ELISA 3, periplasmic extract; competitor BN-12; human plasma. Particulars: remark: other sources report otherwise.
The target in test [4] is human IL-6R on CHO-K1 cells (clone HuIL6R 4D6) (human, UniProt P08887). The test is described as follows: FMAT competition; competitor Reference IgG-A647; CHO cells with human IL-6R. The protocol:
Eleven inhibitory Nanobodies were tested in competition with labelled Reference IgG for binding to CHO cells expressing hIL-6R or cynoIL-6R.

Test [5] concerns the target IL-6R on TF-1 cells (Homo sapiens (Human), UniProt P08887). The test is described as follows: cell-based or functional assay.
The target in test [6] is T3, native soluble IL-6R in human plasma (human, UniProt P08887). In words: ELISA 1, periplasmic extract; competitor IL-6; human plasma.
In test [7] the target is T3, native soluble IL-6R in human plasma. In words: ELISA 3, periplasmic extract; competitor BN-12; human plasma.
Test [8] deals with cyno IL-6R on CHO-K1 cells (clone CyIL6R 405) (cynomolgus monkey; human-rhesus). The test is described as follows: FMAT competition; competitor Reference IgG-A647; CHO cells with cyno IL-6R.
Test [9] addresses T1, soluble IL-6R in cynomolgous plasma. In words: plasma potency ELISA, purified Nanobody; competitor IL-6; cyno plasma. The procedure:
(§1) In this ELISA, plasma was used as a source of native soluble IL-6R. By this assay, we aimed to confirm the alphascreen results and to get a view on the cross-reactivity of the clones towards cynomolgous IL-6R. Human plasma (ELISA 1 and ELISA 3) or cynomolgous plasma (ELISA 2) were pre-incubated with a dilution of the periplasmic extract of the clones together with human IL-6 (50 ng/mL). Subsequently, plasma soluble IL-6R was captured on a B-N12 coated plate and bound IL-6 was detected using anti-IL-6 antibody BAF206 and streptavidin-HRP (ELISA 1 and ELISA 2). The ELISA signal dropped when the Nanobody clone could compete with IL-6 for binding to soluble IL-6R. ELISA 3 was a parallel ELISA in which the detection antibody was replaced by anti-IL-6R antibody BAF227 to exclude false positive competitors, which actually compete with B-N12 (e.g. family 2). Depicted in Table C-5 is the ratio of the OD450 value of the test sample versus the blank OD450 (mock sample). Clones were ordered based on ELISA 1 data.
(§2) A potency ELISA was done with the purified Nanobodies as described in Example 9. Here, different dilutions of each purified Nanobody were incubated with human (ELISA1) and cynomolgous plasma (ELISA2). IC50 values are depicted in Table C-9.

Test [10] deals with T3, native soluble IL-6R in human plasma. In words: plasma potency ELISA, purified Nanobody; competitor IL-6; human plasma. The protocol: as §1, §2

The values below come from patent publication US10618964B2, “Nanobody against IL-6R” (Ablynx N.V., dated 2020).

Where a chain is given by its changes, count along the chain named. Where only a bound is given, the exact number is not on record here.

B1: IL6RPMP103C3 (VHH)
VHH: EVQLVESGGGLVQPGGSMRLSCAATGAIFSISTMGWYRQAPGAQREFVAGVGLDGTPNYADSVKGRFTISRDNTKNTVSLQMENLKPEDTGVYYCNIDEGMDYDGNFYDRWGQGTQVTVSS
B1: the results for the OD450 ratio sample/blank in test [1], in test [2] and in test [3] were 1.1, 2.02 and 1.01, respectively.

B2: IL6RPMP103F2 (VHH)
VHH: EVQLVESGGGLVQAGGSLRLSCVASGHTSDTYIMAWFRQAPGKEREFVASILWDGSITYYADSVKDRFTISRDISRKTLYLQMNSLRPEDTATYTCARGIYFSRRYVDPGIYGTWGQGTQVTVSS
As for B2, the OD450 ratio sample/blank in test [1] came to 1.09; in test [2], 1.95; in test [3] it was 0.993.

B3: Reference Fab (Fab, V domains shown)
VH: QVQLQESGPGLVRPSQTLSLTCTVSGYSITSDHAWSWVRQPPGRGLEWIGYISYSGITTYNPSLKSRVTMLRDTSKNQFSLRLSSVTAADTAVYYCARSLARTTAMDYWGQGSLVTVSS
VL: DIQMTQSPSSLSASVGDRVTITCRASQDISSYLNWYQQKPGKAPKLLIYYTSRLHSGVPSRFSGSGSGTDFTFTISSLQPEDIATYYCQQGNTLPYTFGQGTKVEIKR
For orientation: IC50 means the concentration needed to halve the response being measured. A lower IC50 goes with inhibition by little substance. The molecule B3 came in with an IC50 in [4] of 3.4 nM.

B4: IL6RPMP108E9 (VHH)
VHH: EVQLVESGGGLVQAGGSLRLSCAFSRRSFGNFPMGWFRQRPGEEREYVAVISWNNNYIHYRDSVKGRFTASRDTSENRMYLQMNGLKPEDTAVYYCAARTKDNTLFTPAEEYDYWGQGTQVTVSS
As to B4, the OD450 ratio sample/blank in [1] was 0.961; in [2], 0.731; in [3] it was 0.989.

B5: IL6RPMP120A5 (VHH)
VHH: EVQLVESGGGLVQAGGSLSLSCATSGRTISDDTMAWFRQAPGKEREFVAIITFNGARTHYSDSVRDRFTISRDNAKNTVYLQMNSLKSEDTAVYYCAASTKYYSSTYNYIHPAFYDIWGQGTQVTVSS
Take B5: in [5], the “IC50, IL-6-dependent proliferation of TF-1 cells (3H-thymidine)” value (“IC50, IL-6-dependent proliferation” for short) stood at 5.59 nM. Moreover, the OD450 ratio sample/blank was 0.031 in [1], 0.138 in [6] and 0.988 in [7]. In addition, the IC50 in [8] was 27 nM; in test [9] it was 0.55 nM; in test [10], 0.47 nM; in test [4], 63 nM.

B6: IL6RPMP103C7 (VHH)
VHH: B5 VHH with I50T, N54S, N84D
Turning to B6, in test [5], the “IC50, IL-6-dependent proliferation” value turned out to be 61.3 nM. Also, the OD450 ratio sample/blank in test [1] was determined as 0.175; in test [6], 0.413; in [7], 0.948. In addition, the IC50 is 75 nM in [8], 13.7 nM in [9], 6.9 nM in test [10] and more than 100 nM in [4].

B7: IL6RPMP103C4 (VHH)
VHH: EVQLVESGGGLVEAGGSLRLSCAAAGRTLSSYSMAWFRQAPGKEREFVAIIRGNPSRTYHSDSVKGRFTASRDNAKNTVYLQMNRLEPEDTAVYYCAADPPPFASDYSAPQSYDYWGQGTQVTVSS
Regarding B7, in test [5], the “IC50, IL-6-dependent proliferation” value was found to be 15.6 nM. For the same molecule, the OD450 ratio sample/blank in test [1] was determined as 0.0819; in [6] it was 0.959; in [7], 1. In addition, the IC50 in [8] was 30 nM; in test [9], 2.7 nM; in [10], 1.73 nM; in test [4] it was 37 nM.

B8: IL6RPMP108C9 (VHH)
VHH: EVQLVESGGGLVQAGGSLRLSCAASGRTYAMAWFRQAPGKEREFVAAISIVTDYADSVKGRFNISRDNRENTVYLQMNSLKPEDTAVYYCAANTYYSGAYFPRGHEWYEYWGQGTQVTVSS
For B8, the results for the OD450 ratio sample/blank in test [1], in test [2] and in [3] were 0.907, 0.911 and 1.01, respectively.

B9: IL6RPMP103H9 (VHH)
VHH: EVQLVESGGGLVQPGGSLRLSCAASKSIFDINAMYWHRQAPGKQRESVASITSGGMRNYADSVKDRFTISKDNAKNTVYLQMNGLKPDDTAVYYCGLGRYEGGVWRDYWGQGTQVTVSS
For B9, in test [5], the “IC50, IL-6-dependent proliferation” value was 1470 nM. The OD450 ratio sample/blank was determined as 0.263 in [1], 1.59 in [6] and 0.99 in test [7]. Further, the figures for the half-inhibitory concentration (IC50) in test [9], in [10] and in test [4] were 14.8 nM, 37.9 nM and more than 50 nM, respectively.

B10: IL6RPMP105E1 (VHH)
VHH: EVQLVESGGGLVQAGGSLRLSCAASGSIFSIKAMGWYRQAPGKQRELVARITSGGSTYYADSVKGRFTISRDNAKNTVYLQMNSLKPEDTAVFYCNAIVTDSDYDLGNDYWGQGTQVTVSS
Turning to B10, the “IC50, IL-6-dependent proliferation” value in [5] came to 6.2 nM. In addition, the OD450 ratio sample/blank is 0.0402 in test [1], 0.21 in [6] and 0.995 in test [7]. Also, the half-inhibitory concentration (IC50) was 13 nM in test [8], 0.62 nM in [9], 0.58 nM in test [10] and more than 100 nM in test [4].
